Assay results published in patent US12643935B2, “PD-L1 binding peptides” (UNIVERSITY OF SOUTHERN CALIFORNIA, priority 2020, dated 2026).
Entries after “also recorded” stand apart in the source; their conditions may differ. Where no end group is shown, it is not given here. [ ]: non-standard residue; d: D form. NMeNle = CCCC[C@H](NC)C(=O)O; NMeA = CN[C@@H](C)C(=O)O

Experiments:
[1] = target: T1, hPD-L1 (Homo sapiens, UniProt Q9NZQ7); assay: Radiolabeled [35S] peptide binding assay on immobilized hPD-L1; parameters: designed from A18 to T239 with a methionine added to the N-terminus; hexahistidine tag (C); made in house; settings: for hPD-L1 binding of SPAM alanine mutant normalized to SPAM: [35S]-labeled variants, n=3
Method: [^35S]-labeled peptides were translated as described above by including 2 μCi labeled methionine (Perkin Elmer) per 10 pmol of template in the translation reaction. Each peptide was tested with a […] (for X9-library derived peptides) (SEQ ID NO: 11) or a […] (for X17-library derived peptides) (SEQ ID NO: 12) C-terminal sequence. […] The supernatant was removed and was counted. The beads were subsequently washed three times with 1 mL of blocking buffer and the washes were also counted. Finally, the beads were resuspended in 1 mL of blocking buffer and were counted separately. The ratio of the counts remaining on the beads to the total counts added to the binding reaction (the sum of the counts for supernatant, washes, and beads) was calculated to determine the percent bound.

[2] = test system: hPD-L1; settings: known peptides; cited from earlier work
[3] = target: T1, hPD-L1; assay: Radioactive binding assay of second-generation clones on immobilized human PD-L1; parameters: target for immobilization and selection, the extracellular domain of hPD-L1 (from A18 to T239); hexahistidine tag (C); settings: 22° C., 2.5 or 12.5 pmol immobilized PD-L1
[4] = target: T1, hPD-L1; assay: Binding of second-generation fusions after RNase treatment and in 25% human serum; parameters: target for immobilization and selection, the extracellular domain of hPD-L1 (from A18 to T239); hexahistidine tag (C); settings: 22° C., 25 pmol PD-L1; for binding to hPD-L1 after RNase treatment: RNase A 30 min 37° C.; for binding to hPD-L1 in human serum: RNase-treated fusions in 25% human serum in DMEM
Method: The sequences identified from Sanger sequencing (A,B,C,D) were tested under binding conditions modified to be similar to physiological conditions and compared to the wildtype sequence (S) (FIG. 14). Sequences were prepared as fusions in standard blocking buffer, as RNase-treated fusions (RNase A treatment for 30 min. at 37° C.) in standard blocking buffer, or as RNase-treated fusions in 25% human serum in DMEM. Binding was measured at 22° C. with 0 and 25 pmol biotinylated PD-L1.

## 13A: SPAM variant, alanine substituted at position 3 (MPAFLDHILNKFWILHYAGSGSSGHHHHHHSS) [Peptide 13A]
[1]
  hPD-L1 binding of SPAM alanine mutant normalized to SPAM: little or no significant influence

## 18A: SPAM variant, alanine substituted at position 8 (MPIFLDHALNKFWILHYAGSGSSGHHHHHHSS) [Peptide 18A]
[1]
  hPD-L1 binding of SPAM alanine mutant normalized to SPAM: little or no significant influence

## 114A: SPAM variant, alanine substituted at position 14 (MPIFLDHILNKFWALHYAGSGSSGHHHHHHSS) [Peptide 114A]
[1]
  hPD-L1 binding of SPAM alanine mutant normalized to SPAM: completely abolished hPD-L1 binding

## A18: SPAM variant, glycine substituted for alanine at position 18 (MPIFLDHILNKFWILHYGGSGSSGHHHHHHSS; not fully specified) [Peptide A18]
[1]
  hPD-L1 binding of SPAM alanine mutant normalized to SPAM: completely abolished hPD-L1 binding

## Cyclo[(AcPhe)(NMePhe)(NMeNle)(Sar)DV(NMePhe)Y(Sar)WYLC-Gly-NH2 [Peptide-71]
[2]
  EC50: 293 nM
  IC50: 7 nM

## Cyclo[(AcPhe)NMeAla)NPHLSWSW(NMeNle)(NMeNle)RC]Gly-NH2 (Ac-F[NMeA]NPHLSWSW[NMeNle][NMeNle]RCG-NH2; bridge (positions not given here); also: cyclic, ring from residue 1 to Cys 14, linkage type not given here) [Peptide-57]
[2]
  EC50: 566 nM
  IC50: 9 nM

## D6A: SPAM variant, alanine substituted at position 6 (MPIFLAHILNKFWILHYAGSGSSGHHHHHHSS) [Peptide D6A]
[1]
  hPD-L1 binding of SPAM alanine mutant normalized to SPAM: completely abolished hPD-L1 binding

## DYHDPSLPTLRK [CLP004]
[2]
  IC50: 1170 nM
  Kd: 544 nM

## F4A: SPAM variant, alanine substituted at position 4 (MPIALDHILNKFWILHYAGSGSSGHHHHHHSS) [Peptide F4A]
[1]
  hPD-L1 binding of SPAM alanine mutant normalized to SPAM: little or no significant influence

## F12A: SPAM variant, alanine substituted at position 12 (MPIFLDHILNKAWILHYAGSGSSGHHHHHHSS) [Peptide F12A]
[1]
  hPD-L1 binding of SPAM alanine mutant normalized to SPAM: completely abolished hPD-L1 binding

## H7A: SPAM variant, alanine substituted at position 7 (MPIFLDAILNKFWILHYAGSGSSGHHHHHHSS) [Peptide H7A]
[1]
  hPD-L1 binding of SPAM alanine mutant normalized to SPAM: completely abolished hPD-L1 binding

## H16A: SPAM variant, alanine substituted at position 16 (MPIFLDHILNKFWILAYAGSGSSGHHHHHHSS) [Peptide H16A]
[1]
  hPD-L1 binding of SPAM alanine mutant normalized to SPAM: completely abolished hPD-L1 binding

## HYPFRPHANQAS [CLP001]
[2]
  Kd: 534 nM

## K11A: SPAM variant, alanine substituted at position 11 (MPIFLDHILNAFWILHYAGSGSSGHHHHHHSS) [Peptide K11A]
[1]
  hPD-L1 binding of SPAM alanine mutant normalized to SPAM: completely abolished hPD-L1 binding

## KHAHHTHNLRLP [D-PPA-2]
[2]
  Kd: 1130 nM

## L5A: SPAM variant, alanine substituted at position 5 (MPIFADHILNKFWILHYAGSGSSGHHHHHHSS) [Peptide L5A]
[1]
  hPD-L1 binding of SPAM alanine mutant normalized to SPAM: little or no significant influence

## L9A: SPAM variant, alanine substituted at position 9 (MPIFLDHIANKFWILHYAGSGSSGHHHHHHSS) [Peptide L9A]
[1]
  hPD-L1 binding of SPAM alanine mutant normalized to SPAM: little or no significant influence

## L15A: SPAM variant, alanine substituted at position 15 (MPIFLDHILNKFWIAHYAGSGSSGHHHHHHSS) [Peptide L15A]
[1]
  hPD-L1 binding of SPAM alanine mutant normalized to SPAM: completely abolished hPD-L1 binding

## MEFTSDHSLNKFIILHYANNPF [Peptide C]
[3]
  binding to immobilized human PD-L1 relative to parental SPAM (S): comparable binding to the most frequent sequences; also recorded: better binding than the parental SPAM
[4]
  binding to hPD-L1 after RNase treatment: significant net binding; also recorded: show binding
  binding to hPD-L1 in human serum: significant net binding; also recorded: show binding

## MKHSTDHVLNKFYIMHYTANPN [Peptide 9]
[3]
  binding to immobilized human PD-L1 relative to parental SPAM (S): better binding than the parental SPAM

## MRIFAVFIFMTYWHLLNA [hPD-L1 signal peptide]
[1]; streptavidin agarose beads loaded with 1.1 μM hPD-L1 (1,100 pmol)
  binding to heavily loaded hPD-L1 beads: some binding

## MWSITDHNLNKFWILHYATKHG
[3]
  binding to immobilized human PD-L1 relative to parental SPAM (S): better binding than the parental SPAM
[4]
  binding to hPD-L1 after RNase treatment: significant net binding; also recorded: show binding
  binding to hPD-L1 in human serum: significant net binding; also recorded: show binding

## MWSRSDHNLNKFWILHYSANPS [Peptide 7]
[3]
  binding to immobilized human PD-L1 relative to parental SPAM (S): better binding than the parental SPAM

## MYSHNDHNLNKFWILHFAVNQM [Peptide B]
[3]
  binding to immobilized human PD-L1 relative to parental SPAM (S): better binding than the parental SPAM
[4]
  binding to hPD-L1 after RNase treatment: significant net binding; also recorded: show binding
  binding to hPD-L1 in human serum: significant net binding; also recorded: show binding

## MYSLNDHNLNKFWILHFAVNQM [Peptide 5]
[3]
  binding to immobilized human PD-L1 relative to parental SPAM (S): better binding than the parental SPAM

## MYSRVDHNLNKFWILHQALKSN [Peptide 8]
[3]
  binding to immobilized human PD-L1 relative to parental SPAM (S): better binding than the parental SPAM

## MYTDADHILNKFLIMHYARNQQ [Peptide 1]
[3]
  binding to immobilized human PD-L1 relative to parental SPAM (S): better binding than the parental SPAM

## MYTLTDHILNKFWIMHYARNPT
[3]
  binding to immobilized human PD-L1 relative to parental SPAM (S): comparable binding to the most frequent sequences; also recorded: better binding than the parental SPAM
[4]
  binding to hPD-L1 after RNase treatment: significant net binding; also recorded: show binding
  binding to hPD-L1 in human serum: significant net binding; also recorded: show binding

## MYTQTDHTLNKFLIMHEAFNST [Peptide 3]
[3]
  binding to immobilized human PD-L1 relative to parental SPAM (S): better binding than the parental SPAM

## MYTSTDHILNKFLILHESLQST [Peptide 6]
[3]
  binding to immobilized human PD-L1 relative to parental SPAM (S): better binding than the parental SPAM

## N10A: SPAM variant, alanine substituted at position 10 (MPIFLDHILAKFWILHYAGSGSSGHHHHHHSS) [Peptide N10A]
[1]
  hPD-L1 binding of SPAM alanine mutant normalized to SPAM: completely abolished hPD-L1 binding

## NYSKPTDRQYHF [D-PPA-1]
[2]
  Kd: 510 nM

## P2A: SPAM variant, alanine substituted at position 2 (MAIFLDHILNKFWILHYAGSGSSGHHHHHHSS) [Peptide P2A]
[1]
  hPD-L1 binding of SPAM alanine mutant normalized to SPAM: decreased levels of hPD-L1 binding

## SGQYASYHCWCWRDPGRSGGSK [TPP-1]
[2]
  Kd: 95 nM

## W13A: SPAM variant, alanine substituted at position 13 (MPIFLDHILNKFAILHYAGSGSSGHHHHHHSS) [Peptide W13A]
[1]
  hPD-L1 binding of SPAM alanine mutant normalized to SPAM: completely abolished hPD-L1 binding

## WHFSYNWRWLPP [CLP003]
[2]
  IC50: 2220 nM
  Kd: 117 nM

## WHRSYYTWNLNT [CLP002]
[2]
  IC50: 2170 nM
  Kd: 366 nM

## Y18A: SPAM variant, alanine substituted for tyrosine (position 17 of SPAM) (MPIFLDHILNKFWILHAAGSGSSGHHHHHHSS) [Peptide Y18A]
[1]
  hPD-L1 binding of SPAM alanine mutant normalized to SPAM: decreased levels of hPD-L1 binding
